What all share (test): SPR
The target in test [1] is T1, recombinant human Melanotransferrin MTf(20-709) extracellular domain (human, UniProt P08582-1 20-709, N-glycans at Asn 38, Asn 135 and Asn 515 (high mannose N-glycans favoured by kifunensine for crystallization)).
T1 chain: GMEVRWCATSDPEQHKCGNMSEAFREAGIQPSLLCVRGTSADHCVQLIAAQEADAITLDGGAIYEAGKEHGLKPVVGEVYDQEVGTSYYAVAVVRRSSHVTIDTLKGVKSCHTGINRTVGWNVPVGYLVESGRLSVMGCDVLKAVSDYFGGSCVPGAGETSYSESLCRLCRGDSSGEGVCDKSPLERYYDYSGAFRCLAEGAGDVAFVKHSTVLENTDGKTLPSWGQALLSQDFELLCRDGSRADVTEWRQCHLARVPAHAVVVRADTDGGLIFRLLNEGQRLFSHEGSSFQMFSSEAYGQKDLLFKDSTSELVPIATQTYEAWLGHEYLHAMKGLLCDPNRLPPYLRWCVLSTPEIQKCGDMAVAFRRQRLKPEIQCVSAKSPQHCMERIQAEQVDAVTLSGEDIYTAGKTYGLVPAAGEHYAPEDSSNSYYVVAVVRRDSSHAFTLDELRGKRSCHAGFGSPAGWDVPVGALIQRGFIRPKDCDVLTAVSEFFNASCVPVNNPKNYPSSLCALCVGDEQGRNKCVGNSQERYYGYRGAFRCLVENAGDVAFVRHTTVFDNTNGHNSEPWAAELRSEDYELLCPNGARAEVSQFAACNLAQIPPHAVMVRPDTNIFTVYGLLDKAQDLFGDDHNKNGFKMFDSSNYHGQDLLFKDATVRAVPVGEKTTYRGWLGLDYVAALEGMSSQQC

The target of test [2] is recombinant cynomolgus monkey MTf(20-709) extracellular domain (cynomolgus monkey).
Test [3] deals with T1, recombinant human Melanotransferrin ….

One may read the Kd as a measure of binding affinity in units of concentration. In general, koff refers to the first-order rate constant of dissociation.

B1: SC57.32 Fab fragment (Fab, V domains shown)
VH: QVQLQQSGAELMKPGASVKISCKATGYTFSNYRIEWIKQRPGHGLEWIGEILPRGGNTNYNEKFKGKATFTADTSSNTAYMQLTSLTSEDSAVYYCARDDGYYGRFAYWGQGTLVTVSA
VL: DIQMTQTTSSLSASLGDRVTISCRASQDISNYLNWYQQKPDGTVKLLIFYTSRLHSGVPSRFSGSGSGTDYSLTISNLEQEDFATYFCQQGNTLPPTFGGGTKLEIK
B1: the Kd in test [1] came out at 1 nM; in test [2], 1.1 nM. Moreover, the koff in test [2] is 0.00047 s⁻¹; in test [3], 0.00048 s⁻¹.
